Measurements taken from paper PMC5429858.

System: EZH2 (recombinant PRC2 complex)
Assay: pull-down (streptavidin) + western
Settings: Folding buffer 100 mM KCl, 50 mM Tris-HCl, 5 mM MgCl2, 0.1 mM CaCl2, 0.5 mM ZnCl2 with BSA and RNase inhibitor (pH not given); PNA 30 min 37 C (legend: 1 h …)

HOTAIR full-length lncRNA
binding signal (% reduction of binding): 80
